Source: IntAct's records for PubMed 29892012

B1: E3 ubiquitin-protein ligase LNX (Homo sapiens), Q8TBB1 (parent)
chain: MNQPESANDPEPLCAVCGQAHSLEENHFYSYPEEVDDDLICHICLQALLDPLDTPCGHTYCTLCLTNFLVEKDFCPMDRKPLVLQHCKKSSILVNKLLNKLLVTCPFREHCTQVLQRCDLEHHFQTSCKGASHYGLTKDRKRRSQDGCPDGCASLTATAPSPEVSAAATISLMTDEPGLDNPAYVSSAEDGQPAISPVDSGRSNRTRARPFERSTIRSRSFKKINRALSVLRRTKSGSAVANHADQGRENSENTTAPEVFPRLYHLIPDGEITSIKINRVDPSESLSIRLVGGSETPLVHIIIQHIYRDGVIARDGRLLPGDIILKVNGMDISNVPHNYAVRLLRQPCQVLWLTVMREQKFRSRNNGQAPDAYRPRDDSFHVILNKSSPEEQLGIKLVRKVDEPGVFIFNVLDGGVAYRHGQLEENDRVLAINGHDLRYGSPESAAHLIQASERRVHLVVSRQVRQRSPDIFQEAGWNSNGSWSPGPGERSNTPKPLHPTITCHEKVVNIQKDPGESLGMTVAGGASHREWDLPIYVISVEPGGVISRDGRIKTGDILLNVDGVELTEVSRSEAVALLKRTSSSIVLKALEVKEYEPQEDCSSPAALDSNHNMAPPSDWSPSWVMWLELPRCLYNCKDIVLRRNTAGSLGFCIVGGYEEYNGNKPFFIKSIVEGTPAYNDGRIRCGDILLAVNGRSTSGMIHACLARLLKELKGRITLTIVSWPGTFL
partner: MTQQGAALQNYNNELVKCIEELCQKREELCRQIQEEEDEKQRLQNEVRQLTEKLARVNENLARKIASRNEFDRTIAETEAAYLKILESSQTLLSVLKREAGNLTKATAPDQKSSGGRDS
B2: E3 ubiquitin-protein ligase LNX (Homo sapiens), Q8TBB1 (parent)
chain: B1 chain
partner: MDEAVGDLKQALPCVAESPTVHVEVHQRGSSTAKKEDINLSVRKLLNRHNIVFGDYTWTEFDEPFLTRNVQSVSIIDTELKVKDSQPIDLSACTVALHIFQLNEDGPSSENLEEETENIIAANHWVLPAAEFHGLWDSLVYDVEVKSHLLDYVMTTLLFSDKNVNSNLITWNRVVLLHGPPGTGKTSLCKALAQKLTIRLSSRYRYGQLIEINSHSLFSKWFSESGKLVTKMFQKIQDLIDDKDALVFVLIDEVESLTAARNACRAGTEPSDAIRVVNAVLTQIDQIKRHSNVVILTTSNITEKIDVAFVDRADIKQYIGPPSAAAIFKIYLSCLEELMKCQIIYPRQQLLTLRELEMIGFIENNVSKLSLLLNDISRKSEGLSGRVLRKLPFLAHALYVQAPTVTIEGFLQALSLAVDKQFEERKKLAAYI
B3: E3 ubiquitin-protein ligase LNX (Homo sapiens), Q8TBB1 (parent)
chain: B1 chain
partner: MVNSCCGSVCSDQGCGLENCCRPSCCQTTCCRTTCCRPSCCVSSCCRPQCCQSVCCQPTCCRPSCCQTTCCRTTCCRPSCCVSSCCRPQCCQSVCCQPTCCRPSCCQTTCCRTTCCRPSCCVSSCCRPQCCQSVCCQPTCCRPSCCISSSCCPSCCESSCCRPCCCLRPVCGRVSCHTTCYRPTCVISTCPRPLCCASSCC
B4: E3 ubiquitin-protein ligase LNX (Homo sapiens), Q8TBB1 (parent)
chain: B1 chain
partner: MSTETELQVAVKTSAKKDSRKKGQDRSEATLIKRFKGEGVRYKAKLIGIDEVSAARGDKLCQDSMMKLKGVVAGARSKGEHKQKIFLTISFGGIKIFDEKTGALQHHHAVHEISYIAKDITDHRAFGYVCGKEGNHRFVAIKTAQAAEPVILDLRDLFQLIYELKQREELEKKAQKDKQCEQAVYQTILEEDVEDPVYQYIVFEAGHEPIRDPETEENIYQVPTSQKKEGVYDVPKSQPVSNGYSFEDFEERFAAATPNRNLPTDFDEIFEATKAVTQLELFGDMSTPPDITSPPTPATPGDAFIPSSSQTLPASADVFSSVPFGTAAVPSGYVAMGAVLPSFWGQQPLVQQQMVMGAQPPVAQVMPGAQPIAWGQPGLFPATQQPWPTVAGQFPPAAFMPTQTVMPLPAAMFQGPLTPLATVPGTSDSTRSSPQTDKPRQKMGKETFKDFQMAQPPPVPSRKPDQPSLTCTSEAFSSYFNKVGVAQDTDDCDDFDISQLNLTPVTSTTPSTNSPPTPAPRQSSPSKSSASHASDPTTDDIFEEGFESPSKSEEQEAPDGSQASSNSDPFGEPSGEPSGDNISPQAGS
B5: E3 ubiquitin-protein ligase LNX (Homo sapiens), Q8TBB1 (parent)
chain: B1 chain
partner: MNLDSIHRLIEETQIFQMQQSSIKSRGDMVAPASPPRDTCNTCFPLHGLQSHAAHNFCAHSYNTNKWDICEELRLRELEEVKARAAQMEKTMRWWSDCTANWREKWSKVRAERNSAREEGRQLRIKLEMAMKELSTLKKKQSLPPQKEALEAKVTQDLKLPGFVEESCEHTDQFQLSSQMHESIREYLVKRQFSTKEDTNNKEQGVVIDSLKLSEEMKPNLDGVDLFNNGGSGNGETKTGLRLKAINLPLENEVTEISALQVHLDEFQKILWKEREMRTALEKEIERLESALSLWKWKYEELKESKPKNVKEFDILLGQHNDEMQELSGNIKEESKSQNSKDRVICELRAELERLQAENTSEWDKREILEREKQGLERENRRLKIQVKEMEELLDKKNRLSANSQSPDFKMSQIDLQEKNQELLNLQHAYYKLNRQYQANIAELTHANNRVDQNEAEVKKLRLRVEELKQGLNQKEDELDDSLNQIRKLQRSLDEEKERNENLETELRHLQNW
B6: E3 ubiquitin-protein ligase LNX (Homo sapiens), Q8TBB1 (parent)
chain: B1 chain
partner: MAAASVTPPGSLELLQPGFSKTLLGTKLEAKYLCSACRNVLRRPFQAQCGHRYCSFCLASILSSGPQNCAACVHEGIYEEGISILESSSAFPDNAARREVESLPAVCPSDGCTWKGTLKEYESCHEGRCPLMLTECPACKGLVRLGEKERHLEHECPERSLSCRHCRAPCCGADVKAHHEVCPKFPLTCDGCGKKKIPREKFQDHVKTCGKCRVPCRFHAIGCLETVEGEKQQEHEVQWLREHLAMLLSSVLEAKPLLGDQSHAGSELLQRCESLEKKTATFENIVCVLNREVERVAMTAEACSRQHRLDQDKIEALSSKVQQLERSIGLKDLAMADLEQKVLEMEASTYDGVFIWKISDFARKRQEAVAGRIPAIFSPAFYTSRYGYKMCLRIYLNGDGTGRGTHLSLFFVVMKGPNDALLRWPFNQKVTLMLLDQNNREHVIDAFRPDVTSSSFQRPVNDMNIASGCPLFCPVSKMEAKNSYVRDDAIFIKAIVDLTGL
B7: E3 ubiquitin-protein ligase LNX (Homo sapiens), Q8TBB1 (parent)
chain: B1 chain
partner: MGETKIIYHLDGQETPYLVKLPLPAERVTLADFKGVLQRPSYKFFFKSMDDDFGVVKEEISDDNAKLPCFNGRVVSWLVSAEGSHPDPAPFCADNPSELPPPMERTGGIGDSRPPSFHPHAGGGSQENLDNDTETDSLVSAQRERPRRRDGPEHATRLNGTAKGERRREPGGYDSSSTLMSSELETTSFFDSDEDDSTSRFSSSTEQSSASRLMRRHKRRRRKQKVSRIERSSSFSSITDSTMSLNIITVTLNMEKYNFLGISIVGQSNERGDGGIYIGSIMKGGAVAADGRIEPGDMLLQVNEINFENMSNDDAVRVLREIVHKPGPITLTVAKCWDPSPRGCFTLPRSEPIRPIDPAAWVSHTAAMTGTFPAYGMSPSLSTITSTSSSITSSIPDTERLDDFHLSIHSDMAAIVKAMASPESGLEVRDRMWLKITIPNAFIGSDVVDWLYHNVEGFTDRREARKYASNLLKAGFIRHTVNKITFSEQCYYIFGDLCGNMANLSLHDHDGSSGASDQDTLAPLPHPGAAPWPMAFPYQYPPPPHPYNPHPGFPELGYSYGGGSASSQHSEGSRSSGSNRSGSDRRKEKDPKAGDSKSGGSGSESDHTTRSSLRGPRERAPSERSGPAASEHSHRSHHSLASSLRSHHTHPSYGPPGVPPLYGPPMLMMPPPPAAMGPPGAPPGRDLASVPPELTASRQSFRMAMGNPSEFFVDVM
B8: E3 ubiquitin-protein ligase LNX (Homo sapiens), Q8TBB1 (parent)
chain: B1 chain
partner: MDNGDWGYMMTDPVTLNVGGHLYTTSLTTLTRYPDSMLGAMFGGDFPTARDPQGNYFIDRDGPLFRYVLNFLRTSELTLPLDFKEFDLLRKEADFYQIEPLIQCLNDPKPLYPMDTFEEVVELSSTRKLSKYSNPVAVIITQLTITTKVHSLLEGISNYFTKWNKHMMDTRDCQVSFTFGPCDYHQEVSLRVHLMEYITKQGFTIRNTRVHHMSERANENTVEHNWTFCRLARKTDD

Variants of: B1
Details: with ssna1_human SSNA1, O43805

Variant | effect of a mutation on the interaction
E295K | disrupting interaction strength

Variants of: B2
Details: with pch2_human TRIP13, Q15645

Variant | effect of a mutation on the interaction
E295K | disrupting interaction strength

Variants of: B3
Details: with kr412_human KRTAP4-12, Q9BQ66

Variant | effect of a mutation on the interaction
E295K | disrupting interaction strength

Variants of: B4
Details: with dab1_human DAB1, O75553

Variant | effect of a mutation on the interaction
E295K | disrupting interaction strength

Variants of: B5
Details: with CCDC102B

Variant | effect of a mutation on the interaction
E295K | disrupting interaction strength

Variants of: B6
Details: with traf2_human TRAF2, Q12933

Variant | effect of a mutation on the interaction
E295K | disrupting interaction strength

Variants of: B7
Details: with dvl3_human DVL3, Q92997

Variant | effect of a mutation on the interaction
E295K | disrupting interaction strength

Variants of: B8
Details: with kctd6_human KCTD6, Q8NC69

Variant | effect of a mutation on the interaction
E295K | disrupting interaction strength
